Measured values published in paper PMC9599700, “Biochemical and Structural Characterization of Chi-Class Glutathione Transferases: A Snapshot on the Glutathione Transferase Encoded by sll0067 Gene in the Cyanobacterium Synechocystis sp. Strain PCC 6803” (Biomolecules, 2022).

Legend:
[1] = biological target: T1, SynGSTC1 (Sll0067) (Synechocystis sp. PCC 6803, UniProt Q55139, S10C); assay: NADPH/glutathione reductase-coupled thiol-transferase assay, […] nm; type: biochemical; settings: fixed saturating GSH; 200 µM NADPH; 30 mM Tris-HCl pH 8.0; 25 °C; read-out: HED
T1 construct: gene gst; Ni-NTA and size exclusion; about 180 residues; two-fold dimer in crystal
T1 sequence (Q55139 1-184 S10C): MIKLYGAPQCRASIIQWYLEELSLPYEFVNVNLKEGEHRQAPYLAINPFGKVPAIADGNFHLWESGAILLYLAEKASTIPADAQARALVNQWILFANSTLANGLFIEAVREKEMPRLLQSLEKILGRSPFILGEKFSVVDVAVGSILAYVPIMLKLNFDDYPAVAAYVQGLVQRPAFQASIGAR

[2] = biological target: glutathione transferase chi1 from Synechocystis sp. PCC 6803 (SynGSTC1), wild-type (Synechocystis sp. PCC 6803); assay: crystal structure; co-crystallised with 10 mM glutathione and 1 mM TCEP, microbatch under oil at 4 °C; space group P4(3)2(1)2, two polypeptide chains in the asymmetric unit
[3] = biological target: T2, SynGSTC1 (Sll0067) (Synechocystis sp. PCC 6803, UniProt Q55139); assay: GSH-conjugation assay, spectrophotometric […] nm, Michaelis-Menten fit; type: biochemical; settings: fixed saturating GSH; 100 mM phosphate pH 6.5; 25 °C
T2 construct: gene gst; Ni-NTA and size exclusion; about 180 residues; two-fold dimer in crystal
T2 sequence (Q55139 1-184): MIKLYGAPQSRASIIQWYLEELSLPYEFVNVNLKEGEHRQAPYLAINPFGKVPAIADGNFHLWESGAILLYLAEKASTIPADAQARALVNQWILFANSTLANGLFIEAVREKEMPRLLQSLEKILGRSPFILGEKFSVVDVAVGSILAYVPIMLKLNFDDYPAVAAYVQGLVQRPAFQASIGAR

[4] = biological target: T2, SynGSTC1 (Sll0067); assay: as above; type: biochemical; settings: fixed saturating GSH; 30 mM Tris-HCl pH 8.0, 1 mM EDTA; 25 °C
[5] = substrate: CCCC(=O)Oc1ccc([N+](=O)[O-])cc1; assay: purified protein; type: biochemical, Synechocystis sp. PCC 6803; settings: fixed saturating GSH, 30 mM Tris-HCl pH 8.0, 1 mM EDTA, 25 °C
[6] = substrate: S=C=NCCc1ccccc1; assay: purified protein; type: biochemical, Synechocystis sp. PCC 6803; settings: fixed saturating GSH, 100 mM phosphate pH 6.5, 25 °C
[7] = substrate: CC(C)(OO)c1ccccc1; assay: purified protein; settings: fixed GSH, 200 µM NADPH, 30 mM Tris-HCl pH 8.0, 25 °C

Row | Molecule | Km [6] [µM] | kcat [6] [s⁻¹] | kcat/Km [6] [M⁻¹ s⁻¹] | further results
1 | OCCSSCCO [2-hydroxyethyl disulfide] |  |  |  | Km [1]: 3.3 ± 0.4 µM
2 | glutathione transferase chi1 from Synechocystis sp. PCC 6803 (SynGSTC1), wild-type (enzyme) |  |  |  | stoichiometry N [2]: 2
3 | S=C=NCc1ccccc1 [benzyl-isothiocyanate] |  |  |  | Km [3]: 82 ± 10 µM
4 | O=[N+]([O-])c1ccc(Cl)c([N+](=O)[O-])c1 [1-chloro-2,4-dinitrobenzene] |  |  |  | Km [4]: 3790 ± 772 µM
5 | SynGSTC1 (Sll0067) (Synechocystis sp. PCC 6803 substr. Kazusa) (protein, Ni-NTA and size exclusion; about 180 residues; two-fold dimer in crystal) MIKLYGAPQSRASIIQWYLEELSLPYEFVNVNLKEGEHRQAPYLAINPFGKVPAIADGNFHLWESGAILLYLAEKASTIPADAQARALVNQWILFANSTLANGLFIEAVREKEMPRLLQSLEKILGRSPFILGEKFSVVDVAVGSILAYVPIMLKLNFDDYPAVAAYVQGLVQRPAFQASIGAR | 33.8 ± 2.5 | 12.6 ± 0.2 | 373000 ± 6000 | Km [5]: 162.5 ± 18.3 µM; kcat [5]: 0.48 ± 0.2 s⁻¹; Km [7]: 1508.0 ± 191.0 µM; kcat [7]: 0.91 ± 0.06 s⁻¹
6 | SynGSTC1 (Sll0067) (Synechocystis sp. PCC 6803 substr. Kazusa; S10T) (protein, Ni-NTA and size exclusion; about 180 residues; two-fold dimer in crystal) MIKLYGAPQTRASIIQWYLEELSLPYEFVNVNLKEGEHRQAPYLAINPFGKVPAIADGNFHLWESGAILLYLAEKASTIPADAQARALVNQWILFANSTLANGLFIEAVREKEMPRLLQSLEKILGRSPFILGEKFSVVDVAVGSILAYVPIMLKLNFDDYPAVAAYVQGLVQRPAFQASIGAR | 33.6 ± 2.6 | 7.2 ± 0.1 | 214000 ± 4000 | 
7 | SynGSTC1 (Sll0067) (Synechocystis sp. PCC 6803 substr. Kazusa; S10A) (protein, Ni-NTA and size exclusion; about 180 residues; two-fold dimer in crystal) MIKLYGAPQARASIIQWYLEELSLPYEFVNVNLKEGEHRQAPYLAINPFGKVPAIADGNFHLWESGAILLYLAEKASTIPADAQARALVNQWILFANSTLANGLFIEAVREKEMPRLLQSLEKILGRSPFILGEKFSVVDVAVGSILAYVPIMLKLNFDDYPAVAAYVQGLVQRPAFQASIGAR | 89.7 ± 6.4 | 2.6 ± 0.05 | 28900 ± 600 | 
8 | SynGSTC1 (Sll0067) (Synechocystis sp. PCC 6803 substr. Kazusa; S10C) (protein, Ni-NTA and size exclusion; about 180 residues; two-fold dimer in crystal) MIKLYGAPQCRASIIQWYLEELSLPYEFVNVNLKEGEHRQAPYLAINPFGKVPAIADGNFHLWESGAILLYLAEKASTIPADAQARALVNQWILFANSTLANGLFIEAVREKEMPRLLQSLEKILGRSPFILGEKFSVVDVAVGSILAYVPIMLKLNFDDYPAVAAYVQGLVQRPAFQASIGAR | 33.0 ± 3.0 | 1.19 ± 0.02 | 36000 ± 600 | 
9 | SynGSTC1 (Sll0067) (Synechocystis sp. PCC 6803 substr. Kazusa; R11A) (protein, Ni-NTA and size exclusion; about 180 residues; two-fold dimer in crystal) MIKLYGAPQSAASIIQWYLEELSLPYEFVNVNLKEGEHRQAPYLAINPFGKVPAIADGNFHLWESGAILLYLAEKASTIPADAQARALVNQWILFANSTLANGLFIEAVREKEMPRLLQSLEKILGRSPFILGEKFSVVDVAVGSILAYVPIMLKLNFDDYPAVAAYVQGLVQRPAFQASIGAR | 108.4 ± 6.0 | 0.17 ± 0.003 | 1530 ± 20 | 
